{
  "source": "patent US20250043302A1",
  "about": "“MUTATED HYDROXYPHENYLPYRUVATE DIOXYGENASE POLYPEPTIDE, AND CODING GENE AND USE THEREOF” (BEIJING DABEINONG BIOTECHNOLOGY CO., LTD., priority 2021, published 2025)",
  "molecules": {"B1": {"name": "ZmHPPDm-F372A-F383W-02: nucleotide sequence encoding Zea mays HPPD with F372A+F383W; vector DBN11769 (nucleic acid)", "DNA": "ATGCCACCCACACCCACAGCAGCAGCGGCGGGCGCAGCGGTCGCAGCGGCGTCAGCGGCGGAGCAAGCGGCGTTCAGATTGGTTGGTCACCGCAACTTCGTGAGATTCAATCCTCGCTCAGATAGATTCCATACTCTGGCCTTCCACCATGTTGAGCTTTGGTGCGCTGATGCTGCTTCTGCTGCTGGAAGGTTCAGCTTCGGTTTGGGTGCTCCCCTCGCTGCTAGATCTGATTTGAGCACTGGTAACTCAGCACATGCTTCCCTCCTGCTTAGATCTGGCTCTCTGAGCTTCCTTTTCACTGCTCCATATGCTCATGGTGCTGATGCTGCTACAGCTGCTCTCCCTTCATTCTCCGCTGCTGCTGCTAGGAGATTCGCTGCTGATCACGGATTGGCTGTGAGGGCTGTTGCACTTAGAGTTGCTGATGCTGAGGAGGCCTTCCGCACCTCTGTTGCTGCTGGAGCCAGACCAGCTTTCGGACCTGTTGATCTCGGAAGGGGTTTCCGCCTGGCTGAGGTGGAGCTTTACGGCGATGTGGTTCTGCGCTACGTTAGCTATCCTGATGGTGCTGCTGGTGAACCTTTCCTTCCAGGATTCGAGGGTGTGGCCTCACCAGGTGCCGCTGATTACGGCCTGTCCAGATTCGACCACATTGTTGGAAATGTTCCTGAGCTTGCTCCAGCTGCTGCCTACTTCGCTGGCTTCACCGGATTCCATGAGTTCGCCGAGTTCACCACTGAGGATGTGGGAACTGCTGAGTCTGGTTTGAATAGCATGGTGCTCGCCAACAATTCAGAGAACGTTTTGCTCCCTCTGAATGAGCCCGTGCACGGAACAAAGAGAAGGTCCCAGATTCAAACCTTCTTGGATCACCACGGCGGCCCAGGTGTTCAGCATATGGCTCTCGCCTCCGATGACGTGTTGAGAACCCTCAGGGAGATGCAAGCCAGGTCTGCTATGGGTGGCTTCGAGTTCATGGCCCCACCTACAAGCGATTACTATGATGGTGTGCGCAGAAGGGCTGGCGACGTTCTTACCGAGGCTCAGATCAAGGAGTGCCAAGAGCTGGGCGTGCTTGTTGATAGAGATGACCAGGGAGTTCTGCTTCAAATTGCTCCCAAGCCAGTGGGCGACAGGCCTACTTTGTGGCTCGAGATTATCCAGAGAATCGGATGCATGGAGAGGGATGAGAAGGGTCAGGAGTACCAAAAGGGAGGTTGCGGCGGATTCGGCAAGGGAAATTTCTCACAACTCTTCAAGTCCATCGAGGACTATGAAAAGAGTCTGGAAGCGATGCAGGCAGCAGCAGCAGCAACCGCACAGGGGTCGTGA", "modifications": "ZmHPPDm-F372A-F383W-02 Nucleotide Sequence", "notes": "vector DBN11769"}},
  "format_in_all_cases": "in vivo",
  "key": {"[1]": {"tested_on": "Arabidopsis thaliana T1 plants", "assay": "Topramezone tolerance of transgenic Arabidopsis thaliana T1 plants (spray, bleached leaf area grade, damage score)", "conditions": "7 DAT, Table 4; for Classification and statistics of the grade of pesticide damage: Grade 0 / Classification and statistics of the grade of pesticide damage: Grade 1 / Classification and statistics of the grade of pesticide damage: Grade 2 / Classification and statistics of the grade of pesticide damage: Grade 3: number of plants; for Scores: pesticide damage score 0-100", "method_in_brief": "(§1)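 Damage was assessed by bleaching grade (0 none; 1 <50%; 2 >50%; 3 100% of leaf area) one week after spraying. Sprays on 18-day-old T1 and wild-type plants used field-rate multiples: topramezone 25–200, isoxaflutole 35–280, mesotrione 52.5–420 g ai/ha.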"}, "[2]": {"tested_on": "Arabidopsis thaliana T1 plants", "assay": "Mesotrione tolerance of transgenic Arabidopsis thaliana T1 plants (spray, bleached leaf area grade, damage score)", "design": "Scores: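 damage score 0-100 computed as Σ(N×S)/(T×M)×100 over grades 0-3 with higher meaning more damage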", "conditions": "Arabidopsis thaliana T1 plants; for Grade 0 (classification and statistics of the grade of pesticide damage; number of plants) / Grade 1 (classification and statistics of the grade of pesticide damage; number of plants) / Grade 2 (classification and statistics of the grade of pesticide damage; number of plants) / Grade 3 (classification and statistics of the grade of pesticide damage; number of plants): 16 plants", "method_in_brief": "as §1"}, "[3]": {"tested_on": "Arabidopsis thaliana T1 plants", "assay": "Isoxaflutole tolerance of transgenic Arabidopsis thaliana T1 plants (spray, bleached leaf area grade, damage score)", "design": "Scores (pesticide damage): scale not given here", "conditions": "spray, Arabidopsis thaliana T1 plants; for Classification and statistics of the grade of pesticide damage: Grade 0 (number of plants) / Classification and statistics of the grade of pesticide damage: Grade 1 (number of plants) / Classification and statistics of the grade of pesticide damage: Grade 2 (number of plants) / Classification and statistics of the grade of pesticide damage: Grade 3 (number of plants): 16 plants", "method_in_brief": "as §1"}, "[4]": {"conditions": "isoxaflutole 35 g ai/ha (0.5x field concentration)"}, "[5]": {"conditions": "isoxaflutole 70 g ai/ha (1x field concentration)"}},
  "data": [
    {"molecule": "B1", "values": [
      {"measurement": "Classification and statistics of the grade of pesticide damage: Grade 0", "setting": "[1]; topramezone 25 g ai/ha (1×)", "result": 16},
      {"measurement": "Classification and statistics of the grade of pesticide damage: Grade 1", "setting": "[1]; topramezone 25 g ai/ha (1×)", "result": 0},
      {"measurement": "Classification and statistics of the grade of pesticide damage: Grade 2", "setting": "[1]; topramezone 25 g ai/ha (1×)", "result": 0},
      {"measurement": "Classification and statistics of the grade of pesticide damage: Grade 3", "setting": "[1]; topramezone 25 g ai/ha (1×)", "result": 0},
      {"measurement": "Classification and statistics of the grade of pesticide damage: Grade 0", "setting": "[1]; topramezone 100 g ai/ha (4×)", "result": 10},
      {"measurement": "Classification and statistics of the grade of pesticide damage: Grade 1", "setting": "[1]; topramezone 100 g ai/ha (4×)", "result": 5},
      {"measurement": "Classification and statistics of the grade of pesticide damage: Grade 2", "setting": "[1]; topramezone 100 g ai/ha (4×)", "result": 1},
      {"measurement": "Classification and statistics of the grade of pesticide damage: Grade 3", "setting": "[1]; topramezone 100 g ai/ha (4×)", "result": 0},
      {"measurement": "Scores", "setting": "[1]; topramezone 25 g ai/ha (1×)", "result": 0},
      {"measurement": "Scores", "setting": "[1]; topramezone 100 g ai/ha (4×)", "result": 15},
      {"measurement": "Resistance evaluation", "setting": "[1]; topramezone 25 g ai/ha (1×)", "result": "highly"},
      {"measurement": "Resistance evaluation", "setting": "[1]; topramezone 100 g ai/ha (4×)", "result": "highly"},
      {"measurement": "Resistance evaluation", "setting": "[2]; mesotrione 52.5 g ai/ha", "result": "Highly resistant"},
      {"measurement": "Scores", "setting": "[2]; mesotrione 52.5 g ai/ha", "result": 15},
      {"measurement": "Grade 0 (classification and statistics of the grade of pesticide damage; number of plants)", "setting": "[2]; mesotrione 52.5 g ai/ha", "result": 9},
      {"measurement": "Grade 1 (classification and statistics of the grade of pesticide damage; number of plants)", "setting": "[2]; mesotrione 52.5 g ai/ha", "result": 7},
      {"measurement": "Grade 2 (classification and statistics of the grade of pesticide damage; number of plants)", "setting": "[2]; mesotrione 52.5 g ai/ha", "result": 0},
      {"measurement": "Grade 3 (classification and statistics of the grade of pesticide damage; number of plants)", "setting": "[2]; mesotrione 52.5 g ai/ha", "result": 0},
      {"measurement": "Resistance evaluation", "setting": "[2]; mesotrione 105 g ai/ha", "result": "Moderately"},
      {"measurement": "Scores", "setting": "[2]; mesotrione 105 g ai/ha", "result": 33},
      {"measurement": "Grade 0 (classification and statistics of the grade of pesticide damage; number of plants)", "setting": "[2]; mesotrione 105 g ai/ha", "result": 3},
      {"measurement": "Grade 1 (classification and statistics of the grade of pesticide damage; number of plants)", "setting": "[2]; mesotrione 105 g ai/ha", "result": 10},
      {"measurement": "Grade 2 (classification and statistics of the grade of pesticide damage; number of plants)", "setting": "[2]; mesotrione 105 g ai/ha", "result": 3},
      {"measurement": "Grade 3 (classification and statistics of the grade of pesticide damage; number of plants)", "setting": "[2]; mesotrione 105 g ai/ha", "result": 0},
      {"measurement": "Resistance evaluation", "setting": "[3]; [4]", "result": "Moderately"},
      {"measurement": "Scores (pesticide damage)", "setting": "[3]; [4]", "result": 25},
      {"measurement": "Classification and statistics of the grade of pesticide damage: Grade 0 (number of plants)", "setting": "[3]; [4]", "result": 5},
      {"measurement": "Classification and statistics of the grade of pesticide damage: Grade 1 (number of plants)", "setting": "[3]; [4]", "result": 10},
      {"measurement": "Classification and statistics of the grade of pesticide damage: Grade 2 (number of plants)", "setting": "[3]; [4]", "result": 1},
      {"measurement": "Classification and statistics of the grade of pesticide damage: Grade 3 (number of plants)", "setting": "[3]; [4]", "result": 0},
      {"measurement": "Resistance evaluation", "setting": "[3]; [5]", "result": "Poorly"},
      {"measurement": "Scores (pesticide damage)", "setting": "[3]; [5]", "result": 38},
      {"measurement": "Classification and statistics of the grade of pesticide damage: Grade 0 (number of plants)", "setting": "[3]; [5]", "result": 3},
      {"measurement": "Classification and statistics of the grade of pesticide damage: Grade 1 (number of plants)", "setting": "[3]; [5]", "result": 8},
      {"measurement": "Classification and statistics of the grade of pesticide damage: Grade 2 (number of plants)", "setting": "[3]; [5]", "result": 5},
      {"measurement": "Classification and statistics of the grade of pesticide damage: Grade 3 (number of plants)", "setting": "[3]; [5]", "result": 0}
    ]}
  ]
}
